According to patent US6586252B2, “Nucleic acid molecule encoding the catalytic subunit of a protein phosphatase 2A that regulates flowering time in plants” (Korea Kumho Petrochemical Co., Ltd., priority 2001, dated 2003):

Tested on: phosphorylated oat phytochrome A
Test: Dephosphorylation of autophosphorylated oat phytochrome A by recombinant PP2AC-JD (SDS-PAGE, autoradiography)
Assay type: biochemical
Description: The oat phytochrome A was first autophosphorylated in the presence of γ[32P]ATP under the light conditions indicated. The recombinant PP2AC-JD protein was expressed via the pGEX-4T-1 expression vector in E. coli strain BL21 as a GST fusion, and the GST tag domain was cleaved out by thrombin digestion. (A) Cation requirements for the PP2AC-JD activity. One μg of the phosphorylated phytoclirome A was incubated with 0.2 μg of the recombinant PP2AC-JD for 30 minutes at room temperature, analysed on 12% SDS-PAGE, and subject to autoradiography. (B) Spectral form-dependent dephosphorylation of the phytochrome A. The Pfr form was a better substrate for the PP2AC-JD than the Pr form.
The enzymatic activity of the protein phosphatase encoded by said nucleic acid molecule can be assayed using a phosphorylated protein, preferentially autophosphorylated phytochromes. The reaction mixture is then analyzed on SDS-PAGE and visualized by autoradiography.
The PCR product containing the PP2AC-JD gene was double-digested with EcoRI and XhoI and incorporated into the pGEX-4T-1 E. coli expression vector, resulting in pG-PP2AC-JD. In this expression construct, the PP2AC-JD gene sequence was in frame fused to the glutathione S-transferase (GST) coding sequence at the N-terminus. The vector construct was transformed into E. coli strain BL21, and the transformants were selected with 100 μg/ml ampicillin. RB medium, rather than LB, was used for induction. Two hundred fifty ml of RB (0.5% yeast extract, 1% tryptone, 0.5% NaCl, 0.2% glucose, pH 7.5 with NaOH) supplemented with ampicillin (100 μg/ml) was inoculated with 3 ml of freshly grown cell culture and incubated at 20° C. with shaking at 250 rpm to an OD600 of 0.6. Expression was induced by adding IPTG (1 μM) and by further shaking at 20° C. for 5 hours. After centrifugation at 5000×g for 5 minutes, the cell pellet was washed in ice-cold 1×Phosphate-Buffered Saline (PBS, 140 mM NaCl, 2.7 mM KCI, 10 mM Na2HPO4, 1.8 mM KH2PO4, pH7.3). […]

B1: PP2AC-JD: recombinant catalytic subunit of a pea protein phosphatase 2A (SEQ ID NO: 2), expressed in E. coli BL21 (protein)
chain: MDLDQWISKVKDGQHLLEDELQLLCEYVKEILIEESNVQPVNSPVTVCGDIHGQFHDLMKLFQTGGHVPETNYIFMGDFVDRGYNSLDVFTILLLLKARYPANITLLRGNHESRQLTQVYGFYDECQRKYGNANATRYCTDVFDYLTLSAIIDGTVLCVHGGLSPDIRTIDQIRVIERNCEIPHEGPFCDLMWSDPEDIETWAVSPRGAGWLFGSRVTSEFNHINNLDLVCRAHQLVQEGLKYMFQDKGLVTVWSAPNYCYRCGNVASILSFNENMEREVKFFTETEENNQMRGPRTGVPYFL
Cations other than Fe2+ or Zn2+
  stimulatory effect of other cations on PP2AC-JD activity: did not show any significant stimulatory effects
In the presence of Fe2+ or Zn2+, 1 μg phytochrome A, 0.2 μg PP2AC-JD, 30 minutes, room temperature
  dephosphorylation of phosphorylated oat phytochrome A: efficiently dephosphorylated
Phytochrome A autophosphorylated under different light conditions
  dephosphorylation of Pfr phytochrome A compared with the Pr spectral form: more efficiently dephosphorylated
